Data reported in patent US20150344570A1 (published 2015).

T1: FcgRIIa H (FcγRIIa type H) extracellular domain with C-terminal His tag (human, UniProt P12318 34-217)
T1 construct: extracellular domain; also called FcγRIIa H; not shown: His tag attached to the C terminus
T1 sequence (looked up): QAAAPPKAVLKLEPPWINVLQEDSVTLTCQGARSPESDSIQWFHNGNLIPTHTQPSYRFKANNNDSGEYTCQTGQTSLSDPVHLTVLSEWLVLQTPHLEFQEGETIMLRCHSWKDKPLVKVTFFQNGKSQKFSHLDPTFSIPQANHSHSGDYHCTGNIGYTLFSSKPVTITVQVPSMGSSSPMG

T2: FcgRIIa R (FcγRIIa type R) extracellular domain with C-terminal His tag (human, UniProt P12318 34-217)
T2 construct: extracellular domain; also called FcγRIIa R; not shown: His tag attached to the C terminus
T2 sequence (looked up): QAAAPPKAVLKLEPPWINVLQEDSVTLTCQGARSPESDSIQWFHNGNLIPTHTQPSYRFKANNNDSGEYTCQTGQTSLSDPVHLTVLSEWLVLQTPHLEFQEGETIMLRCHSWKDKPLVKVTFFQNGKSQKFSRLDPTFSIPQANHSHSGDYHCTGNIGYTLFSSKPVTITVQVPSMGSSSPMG

T3: FcgRIIb (FcγRIIb) extracellular domain with C-terminal His tag (human, UniProt P31994 43-217)
T3 construct: extracellular domain; not shown: His tag attached to the C terminus
T3 sequence (looked up): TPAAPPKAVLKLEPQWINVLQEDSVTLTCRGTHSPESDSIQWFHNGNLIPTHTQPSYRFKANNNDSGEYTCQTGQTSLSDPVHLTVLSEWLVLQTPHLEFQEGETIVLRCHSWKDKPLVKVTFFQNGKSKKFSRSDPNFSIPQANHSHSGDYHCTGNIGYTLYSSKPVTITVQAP


Tests used:
Experiment in all cases: SPR (Biacore); KD of H240-Kn061/H240-Hl071/L73-k0 divided by KD of the variant
[1] = target: T4, FcgRIIIa V (FcγRIIIa type V) extracellular domain with C-terminal His tag (human, UniProt P08637 17-208)
T4 construct: extracellular domain; also called FcγRIIIa V; not shown: His tag attached to the C terminus
Protocol: (§1) The antibodies were assessed for the binding to each FcgR. […] The resultant value was defined as relative KD, and used as an assessment indicator.
(§2) Analysis of interaction between objective antibody and the FcγR was carried out using Biacore T100 (GE Healthcare), Biacore T200, Biacore A100, and Biacore 4000. HBS-EP+ (GE Healthcare) was used as the running buffer, and the measurement temperature was set to 25° C. Chips produced by immobilizing the antigen peptide by the amine coupling method to a Series S sensor Chip CM5 (GE Healthcare), chips produced by allowing preliminarily biotinylated antigen peptides to interact with and immobilize onto a Series S Sensor Chip SA (certified) (GE Healthcare), chips produced by immobilizing Protein L (ACTIGEN, BioVision) to Series S Sencor Chip CM5 (GE Healthcare), or chips produced by immobilizing Protein A/G (Thermo Scientific) to Series S Sencor Chip CM5 (GE Healthcare) were used. Antibodies of interest were captured onto these chips, and allowed to interact to each FcγR diluted with running buffer.

[2] = target: T1, FcgRIIa H (FcγRIIa type H) …
Protocol: as §1, §2

[3] = target: T2, FcgRIIa R (FcγRIIa type R) …
Protocol: as §1, §2

[4] = target: T3, FcgRIIb (FcγRIIb) extracellular domain …
Protocol: as §1, §2

[5] = target: T5, FcgRIIIa F (FcγRIIIa type F) extracellular domain with C-terminal His tag (human, UniProt P08637 17-208)
T5 construct: extracellular domain; also called FcγRIIIa F; 3aF; not shown: His tag attached to the C terminus
Protocol: as §1, §2

T5 sequence (P08637 17-208): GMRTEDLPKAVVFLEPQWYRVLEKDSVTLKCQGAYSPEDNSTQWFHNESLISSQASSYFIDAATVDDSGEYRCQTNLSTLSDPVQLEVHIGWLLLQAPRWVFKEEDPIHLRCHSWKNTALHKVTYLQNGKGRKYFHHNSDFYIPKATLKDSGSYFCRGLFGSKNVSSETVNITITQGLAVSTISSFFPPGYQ
T4 sequence (P08637 17-208 F176V limits assumed): as the sequence (P08637 17-208) above, with F160V counted along it

Row | Binder | relative KD [1] | relative KD [2] | relative KD [3] | relative KD [4] | relative KD [5]
1 | H240-Kn061/H240-Hl071/L73-k0 variant with S239I in H240-Kn061 (antibody, human IgG1, kappa, anti-epiregulin heterodimerized IgG1; also called H240-Kn061 S239I) heavy 1: QDQLVQSGAEVKKPGASVKVSCKASGFNIKDTYIQWVRQAPGQGLEWMGRIDPLRKQTKYREKFEGRVTITADTSTNTAYMELSSLRSEDTAVYYCVRSGREFDYWGQGTLVTVSSASTKGPSVFPLAPSSKSTSGGTAALGCLVKDYFPEPVTVSWNSGALTSGVHTFPAVLQSSGLYSLSSVVTVPSSSLGTQTYICNVNHKPSNTKVDKKVEPKSCDKTHTCPPCPAPEYYWGPIVFLFPPKPKDTLMISRTPEVTCVVVDVSDEDPEVKFNWYVDGVEVHNAKTKPREEQYNATYRVVSVLTVLHQDWLNGKEYKCKVSNKALPAPIEKTISKAKGQPREPQVCTLPPSRDELTKNQVSLWCLVKGFYPSDIAVEWESNGQPENNYKTTPPVLDSDGSFFLYSKLTVDKSRWQQGNVFSCSVMHEALHNHYTQKSLSLSP heavy 2: QDQLVQSGAEVKKPGASVKVSCKASGFNIKDTYIQWVRQAPGQGLEWMGRIDPLRKQTKYREKFEGRVTITADTSTNTAYMELSSLRSEDTAVYYCVRSGREFDYWGQGTLVTVSSASTKGPSVFPLAPSSKSTSGGTAALGCLVKDYFPEPVTVSWNSGALTSGVHTFPAVLQSSGLYSLSSVVTVPSSSLGTQTYICNVNHKPSNTKVDKKVEPKSCDKTHTCPPCPAPELLGGPSVFLFPPKPKDTLMISRTPEVTCVVVDVSHEDPEVKFNWYVDGVEVHNAKTKPREEQYNSTYRVVSVLTVLHQDWLNGKEYKCKVSNDALPMPIEETISKAKGQPREPQVYTLPPSRCELTKNQVSLSCAVKGFYPSDIAVEWESNGQPENNYKTTPPVLDSDGSFFLVSKLTVDKSRWQQGNVFSCSVMHEALHNHYTQKSLSLSP light: DIQMTQSPSSLSASVGDRVTITCRASQDIHKYIAWYQQKPGQAPRLLIQYTSTLQPGVPSRFSGSGSGTDYTFTISSLQPEDIATYYCLQYEQLRTFGGGTKVEIKRTVAAPSVFIFPPSDEQLKSGTASVVCLLNNFYPREAKVQWKVDNALQSGNSQESVTEQDSKDSTYSLSSTLTLSKADYEKHKVYACEVTHQGLSSPVTKSFNRGEC | 3.4 ratio | 2.1 ratio | 4.4 ratio | 3.1 ratio | 3 ratio
2 | H240-Kn061/H240-Hl071/L73-k0 variant with S239L in H240-Kn061 (antibody, human IgG1, kappa, anti-epiregulin heterodimerized IgG1; also called H240-Kn061 S239L) heavy 1: QDQLVQSGAEVKKPGASVKVSCKASGFNIKDTYIQWVRQAPGQGLEWMGRIDPLRKQTKYREKFEGRVTITADTSTNTAYMELSSLRSEDTAVYYCVRSGREFDYWGQGTLVTVSSASTKGPSVFPLAPSSKSTSGGTAALGCLVKDYFPEPVTVSWNSGALTSGVHTFPAVLQSSGLYSLSSVVTVPSSSLGTQTYICNVNHKPSNTKVDKKVEPKSCDKTHTCPPCPAPEYYWGPLVFLFPPKPKDTLMISRTPEVTCVVVDVSDEDPEVKFNWYVDGVEVHNAKTKPREEQYNATYRVVSVLTVLHQDWLNGKEYKCKVSNKALPAPIEKTISKAKGQPREPQVCTLPPSRDELTKNQVSLWCLVKGFYPSDIAVEWESNGQPENNYKTTPPVLDSDGSFFLYSKLTVDKSRWQQGNVFSCSVMHEALHNHYTQKSLSLSP heavy 2: QDQLVQSGAEVKKPGASVKVSCKASGFNIKDTYIQWVRQAPGQGLEWMGRIDPLRKQTKYREKFEGRVTITADTSTNTAYMELSSLRSEDTAVYYCVRSGREFDYWGQGTLVTVSSASTKGPSVFPLAPSSKSTSGGTAALGCLVKDYFPEPVTVSWNSGALTSGVHTFPAVLQSSGLYSLSSVVTVPSSSLGTQTYICNVNHKPSNTKVDKKVEPKSCDKTHTCPPCPAPELLGGPSVFLFPPKPKDTLMISRTPEVTCVVVDVSHEDPEVKFNWYVDGVEVHNAKTKPREEQYNSTYRVVSVLTVLHQDWLNGKEYKCKVSNDALPMPIEETISKAKGQPREPQVYTLPPSRCELTKNQVSLSCAVKGFYPSDIAVEWESNGQPENNYKTTPPVLDSDGSFFLVSKLTVDKSRWQQGNVFSCSVMHEALHNHYTQKSLSLSP light: DIQMTQSPSSLSASVGDRVTITCRASQDIHKYIAWYQQKPGQAPRLLIQYTSTLQPGVPSRFSGSGSGTDYTFTISSLQPEDIATYYCLQYEQLRTFGGGTKVEIKRTVAAPSVFIFPPSDEQLKSGTASVVCLLNNFYPREAKVQWKVDNALQSGNSQESVTEQDSKDSTYSLSSTLTLSKADYEKHKVYACEVTHQGLSSPVTKSFNRGEC | 3.7 ratio | 2.4 ratio | 4.8 ratio | 3.4 ratio | 3.4 ratio
3 | H240-Kn061/H240-Hl071/L73-k0 variant with S239V in H240-Kn061 (antibody, human IgG1, kappa, anti-epiregulin heterodimerized IgG1; also called H240-Kn061 S239V) heavy 1: QDQLVQSGAEVKKPGASVKVSCKASGFNIKDTYIQWVRQAPGQGLEWMGRIDPLRKQTKYREKFEGRVTITADTSTNTAYMELSSLRSEDTAVYYCVRSGREFDYWGQGTLVTVSSASTKGPSVFPLAPSSKSTSGGTAALGCLVKDYFPEPVTVSWNSGALTSGVHTFPAVLQSSGLYSLSSVVTVPSSSLGTQTYICNVNHKPSNTKVDKKVEPKSCDKTHTCPPCPAPEYYWGPVVFLFPPKPKDTLMISRTPEVTCVVVDVSDEDPEVKFNWYVDGVEVHNAKTKPREEQYNATYRVVSVLTVLHQDWLNGKEYKCKVSNKALPAPIEKTISKAKGQPREPQVCTLPPSRDELTKNQVSLWCLVKGFYPSDIAVEWESNGQPENNYKTTPPVLDSDGSFFLYSKLTVDKSRWQQGNVFSCSVMHEALHNHYTQKSLSLSP heavy 2: QDQLVQSGAEVKKPGASVKVSCKASGFNIKDTYIQWVRQAPGQGLEWMGRIDPLRKQTKYREKFEGRVTITADTSTNTAYMELSSLRSEDTAVYYCVRSGREFDYWGQGTLVTVSSASTKGPSVFPLAPSSKSTSGGTAALGCLVKDYFPEPVTVSWNSGALTSGVHTFPAVLQSSGLYSLSSVVTVPSSSLGTQTYICNVNHKPSNTKVDKKVEPKSCDKTHTCPPCPAPELLGGPSVFLFPPKPKDTLMISRTPEVTCVVVDVSHEDPEVKFNWYVDGVEVHNAKTKPREEQYNSTYRVVSVLTVLHQDWLNGKEYKCKVSNDALPMPIEETISKAKGQPREPQVYTLPPSRCELTKNQVSLSCAVKGFYPSDIAVEWESNGQPENNYKTTPPVLDSDGSFFLVSKLTVDKSRWQQGNVFSCSVMHEALHNHYTQKSLSLSP light: DIQMTQSPSSLSASVGDRVTITCRASQDIHKYIAWYQQKPGQAPRLLIQYTSTLQPGVPSRFSGSGSGTDYTFTISSLQPEDIATYYCLQYEQLRTFGGGTKVEIKRTVAAPSVFIFPPSDEQLKSGTASVVCLLNNFYPREAKVQWKVDNALQSGNSQESVTEQDSKDSTYSLSSTLTLSKADYEKHKVYACEVTHQGLSSPVTKSFNRGEC | 2.9 ratio | 2.4 ratio | 4.2 ratio | 3.4 ratio | 2.4 ratio
4 | H240-Kn061/H240-Hl071/L73-k0 variant with S239M in H240-Kn061 (antibody, human IgG1, kappa, anti-epiregulin heterodimerized IgG1; also called H240-Kn061 S239M) heavy 1: QDQLVQSGAEVKKPGASVKVSCKASGFNIKDTYIQWVRQAPGQGLEWMGRIDPLRKQTKYREKFEGRVTITADTSTNTAYMELSSLRSEDTAVYYCVRSGREFDYWGQGTLVTVSSASTKGPSVFPLAPSSKSTSGGTAALGCLVKDYFPEPVTVSWNSGALTSGVHTFPAVLQSSGLYSLSSVVTVPSSSLGTQTYICNVNHKPSNTKVDKKVEPKSCDKTHTCPPCPAPEYYWGPMVFLFPPKPKDTLMISRTPEVTCVVVDVSDEDPEVKFNWYVDGVEVHNAKTKPREEQYNATYRVVSVLTVLHQDWLNGKEYKCKVSNKALPAPIEKTISKAKGQPREPQVCTLPPSRDELTKNQVSLWCLVKGFYPSDIAVEWESNGQPENNYKTTPPVLDSDGSFFLYSKLTVDKSRWQQGNVFSCSVMHEALHNHYTQKSLSLSP heavy 2: QDQLVQSGAEVKKPGASVKVSCKASGFNIKDTYIQWVRQAPGQGLEWMGRIDPLRKQTKYREKFEGRVTITADTSTNTAYMELSSLRSEDTAVYYCVRSGREFDYWGQGTLVTVSSASTKGPSVFPLAPSSKSTSGGTAALGCLVKDYFPEPVTVSWNSGALTSGVHTFPAVLQSSGLYSLSSVVTVPSSSLGTQTYICNVNHKPSNTKVDKKVEPKSCDKTHTCPPCPAPELLGGPSVFLFPPKPKDTLMISRTPEVTCVVVDVSHEDPEVKFNWYVDGVEVHNAKTKPREEQYNSTYRVVSVLTVLHQDWLNGKEYKCKVSNDALPMPIEETISKAKGQPREPQVYTLPPSRCELTKNQVSLSCAVKGFYPSDIAVEWESNGQPENNYKTTPPVLDSDGSFFLVSKLTVDKSRWQQGNVFSCSVMHEALHNHYTQKSLSLSP light: DIQMTQSPSSLSASVGDRVTITCRASQDIHKYIAWYQQKPGQAPRLLIQYTSTLQPGVPSRFSGSGSGTDYTFTISSLQPEDIATYYCLQYEQLRTFGGGTKVEIKRTVAAPSVFIFPPSDEQLKSGTASVVCLLNNFYPREAKVQWKVDNALQSGNSQESVTEQDSKDSTYSLSSTLTLSKADYEKHKVYACEVTHQGLSSPVTKSFNRGEC | 2.8 ratio | 2 ratio | 3.2 ratio | 2.2 ratio | 2.2 ratio
